{"source": "patent US20130115589A1", "about": "(UNIVERSITY OF TOKYO, published 2013)", "binders": {"B1": {"name": "NMHC-IIArod-Ig (fusion protein of the C terminal fragment of NMHC-IIA and Ig) (Fc fusion)", "chain": "LAQAKENEKKLKSMEAEMIQLQEELAAAERAKRQAQQERDELADEIANSSGKGALALEEKRRLEARIAQLEEELEEEQGNTELINDRLKKANLQIDQINTDLNLERSHAQKNENARQQLERQNKELKVKLQEMEGTVKSKYKASITALEAKIAQLEEQLDNETKERQAACKQVRRTEKKLKDVLLQVDDERRNAEQYKDQADKASTRLKQLKRQLEEAEEEAQRANASRRKLQRELEDATETADAMNREVSSLKNKLRRGDLPFVVPRRMARKGAGDGSDEEVDGKADGAEAKPAE", "notes": "also called soluble C-terminal fragment of NMHC-IIA; soluble form of NMHC-IIA"}}, "biological_target": "T1, wild-type glycoprotein B (gB) of HSV-1(F) (Herpes simplex virus 1 (HSV-1(F)), UniProt P06436 30-903)", "T1 construct": "whole, on cells; also called wild-type gB", "experiment": "flow cytometry on infected 293T cells, PE-labeled anti-human IgG secondary antibody"}
{"binder": "B1", "values": [{"measurement": "binding result", "value": "binds"}]}
